NMDA-evoked cGMP production in cortical cultures (surrogate of NO production by nNOS) data for one substance are collected here from patent publication US20050059597A1.

The assay deals with PSD-95, endogenous, in cultured cortical neurons (mouse) (UniProt Q62108). Nature of the assay: cell-based or functional assay.
Sequence of PSD-95, endogenous, in cultured cortical neurons (mouse) (Q62108 whole entry): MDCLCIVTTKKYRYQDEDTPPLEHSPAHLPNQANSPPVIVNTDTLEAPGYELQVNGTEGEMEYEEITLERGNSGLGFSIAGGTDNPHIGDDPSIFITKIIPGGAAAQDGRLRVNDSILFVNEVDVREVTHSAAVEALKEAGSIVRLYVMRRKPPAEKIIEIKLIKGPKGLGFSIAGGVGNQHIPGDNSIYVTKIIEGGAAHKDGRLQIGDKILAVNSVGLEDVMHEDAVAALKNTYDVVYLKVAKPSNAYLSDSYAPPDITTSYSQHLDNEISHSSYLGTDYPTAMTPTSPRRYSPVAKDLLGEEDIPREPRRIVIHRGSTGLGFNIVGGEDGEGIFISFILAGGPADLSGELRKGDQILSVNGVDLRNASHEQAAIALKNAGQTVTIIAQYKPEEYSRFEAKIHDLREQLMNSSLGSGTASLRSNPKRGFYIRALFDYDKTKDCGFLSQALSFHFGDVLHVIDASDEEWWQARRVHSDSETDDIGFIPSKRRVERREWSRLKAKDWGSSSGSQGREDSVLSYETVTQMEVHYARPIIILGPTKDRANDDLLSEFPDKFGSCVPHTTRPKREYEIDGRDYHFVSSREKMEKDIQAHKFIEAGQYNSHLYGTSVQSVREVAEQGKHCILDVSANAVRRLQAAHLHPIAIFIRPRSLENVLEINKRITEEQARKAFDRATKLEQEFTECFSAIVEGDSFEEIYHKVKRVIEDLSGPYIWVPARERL

Take Tat-NR2B9c (peptide): the NMDA-evoked cGMP production in cortical cultures (surrogate of NO production by nNOS) was found to be 39.5%.
